Results on 41 sequences are retold here after the nanobody polyreactivity screen of Harvey et al. (2022).

The data set is described as follows: yeast display, Sf9 membrane polyspecificity reagent, FACS + sequencing; frameworks hold sequencing errors. The method, boiled down: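 Polyreactivity labels are assigned by the sorting gate from which each nanobody was recovered. The gates were low and high (top ~1%), set on anti-HA fluorescence for expression and streptavidin fluorescence for reagent binding. Before sorting, galactose-induced (36–48 hours) yeast display cells were stained for 1 hour at 4 °C with 10% biotinylated, detergent-solubilized Sf9 membrane reagent.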
On to “QVQLVESGGGLVQAGGSLRLSCAASGFILRAYAMGWYRQAPGKERELVAAITSATSTNYADSVKGRFTISRDNAKNTVYLQMNSLKPEDTAVYYCAADGGGGEFSYDSWGQGTQVTVSS”, for which the “polyreactivity (PSR sort gate)” value was “low polyreactivity”.

For “QVQLVESGGGLVQAGGSLRLSCAASGSIFYRNAMGWYRQAPGKERELVAGITTRGGSTYYADSVKGRFTISRDNAKNTVYLQMNSLKPEDTAVYYCNKYYYYRDSGYWGQGTQVTVSS”, the “polyreactivity (PSR sort gate)” value was “high polyreactivity”.

Consider “QVQLVESGGGLVQAGGSLRLSCAPSGRIIFYNAMGWYRQAPGKERELVAAISIGGRTYYADSVKGRFTISRDNAKNTVYLQMNSLKPEDTAVYYCAALGYPYLRSGYWGQGTQVTVSS”, for which the “polyreactivity (PSR sort gate)” value was “high polyreactivity”.

As for “QVQLVESGGGIVQAGRSLRLRCAASGSTFTPYGMGWYRQAPGKESELVAAITVSGGRTYYADSVKGRFTISRDNANNTVSLVMNSLKPEDTAVYYCAAVYLRADGDYDYWGQGTQVNVSS”, the “polyreactivity (PSR sort gate)” value is “low polyreactivity”.

Turning to “QVQLVESGGGLVQAGGSLRLSCAASGRIFAVNAMGWYRQAPGKERELVASIRWSGGSTYYADSVKGRFTISRDNAKNTVYLQMNSLKPEDTAVYYCAAVIYLWGQGTQVTVSS”, the “polyreactivity (PSR sort gate)” value was “high polyreactivity”.

For “QVQLVESGAGLVQAGGSLRLSCAASGSTFDGNVMGWYRQEPGKESELVAAISGGGSTNYADSVKGRFTISRDNAKNTVYLQMNSLKPEDTAVYYCATQYWHFPYWQYKYDYWGQGTQVTVSS”, the “polyreactivity (PSR sort gate)” value is reported as “low polyreactivity”.

As for “QVQLVESGGGLVQAGGSLRLSCAASGRIFDYNVMGWYRQAPGKERELVAGISSGGSTYYADSVKGRFTISRDNAKNTVYLQMNSLKPEDTEVYYCAARGRPYRGYGYWGQGTQVTVSS”, the “polyreactivity (PSR sort gate)” value is “high polyreactivity”.

Turning to “QVQLVESGGGLVQAGGSLRLSCAASGRTFKVYAMGWYRQAPGKERELVAAITGGGSTNYADSVKGRFTISRDNAKNTVYLQMNSLKPEDTAVYYCNARYYYRLVKWSRFSSYDYWGQGTQVTVSS”, the “polyreactivity (PSR sort gate)” value was “low polyreactivity”.

For the sequence “QVQLVESGGGLVQAGGSLRLSCAASGRIFLVNAMGWYRQAPGKEREFVAAITDNTGSTYYADSVKGRFTISRDNAKNTVYLQMNSLKPEDTAVYYCAKQRGNKRIGYDSWGQGTQVTVSS”, the “polyreactivity (PSR sort gate)” value is “low polyreactivity”.

Take “QVQLVESGGGLVQAGGSLRLSCAASGRTFRRYAMGWYRQAPGKERELVAVISRGGSTHYADSVKGRFTISRDNAKNTVYLQMNSLKPEDTAVYYCNAVVSVYTQDLDYWGQGTQVTVSS”: the “polyreactivity (PSR sort gate)” value is given as “high polyreactivity”.

Take “QVQLVESGGGLVQAGGSLRLSCAASGSTFFLYAMGWYRQAPGKERELVAAISTTGGSTNYADSVKGRFTISRDNAKNTVYLQMNSLKPEDTAVYYCAAGPSAQSIYDHWGQGTQVTVSS”: the “polyreactivity (PSR sort gate)” value is “low polyreactivity”.

On to “QVQLVESGGGLVQAGGSLRLSCAASGLIISWYAMGWNRQEPGTERELVAAISSGGSTTYADSVKGRFTISRDNAKNTVYLQMNSLKPEDTAVYYCNADQVFGYNYWGQGTQLTVSS”, for which the “polyreactivity (PSR sort gate)” value is listed as “high polyreactivity”.

On to “QVQLVESGGGLVQEGGSLRLSCAAYGFIFGDNALGWYRQAPGKERELVAGSTVSDGSTYYADSVKGRFTISRDNAKNTVYLLMNSLKPEDTAVYYCNAAGRYKPGAPYDYWGQGNQVTVSS”, for which the “polyreactivity (PSR sort gate)” value is on record as “low polyreactivity”.

Regarding “QVQLVESGGGLVQAGGSLRLSCAASGFTFAYYAMGWYRQAPGKERELVAAISSGDNTNYADSVKGRFTISRDNAKNTVYLQMNSLKPEDTAVYYCNAEYNFKWWGPYWYYVKDDYWGQGTQVTVSS”, the “polyreactivity (PSR sort gate)” value is listed as “low polyreactivity”.

Turning to “QVQLVESGGALVQAGGSLRLSCAASGSTIYQNAMGWYRQAPGKERELVAVISSGGSTYYADSVKGRFTISRDNAKNTVYLQMNSLKAEDTAVYYCAADRGTVSYLYSPRAVDYWGQGTQVTVSS”, the “polyreactivity (PSR sort gate)” value is listed as “low polyreactivity”.

“QVQLVESGGGLVQAGGSLRLSCAASGFIFVQNVMGWYRQAPGKERELVAAITWRGTSTYYADSVKGRFTISRDNAKNTVYLLMNSLKPEDTAVYDWNVDLQEDCEEYDYWGQGTQVTVSS”: the “polyreactivity (PSR sort gate)” value is reported as “low polyreactivity”.

As to “QVQLVESGGGLVQAGGSLRLSCAASGSTFLYYAMGWYRQAPGKERELVAVISWSGVSTYYADSVKGRFTISRDNAKNTVYLQMNSLKPEDTPVYYCNTGNQYIRTYGYWGQGSQVTVSS”, the “polyreactivity (PSR sort gate)” value is given as “low polyreactivity”.

“QVQLVESGGGLVQAGGSLRLSCAASGRTFSSYAMGWYIQAPGKERELVAAITRGGGSTYYADSVKGRFTISRDNAKNTVYLQMNSLKPEDTAVYYCAADYGRDYRAFNYWGQGTQVTVSS”: the “polyreactivity (PSR sort gate)” value was “high polyreactivity”.

For “QVQLVESGGGLVQAGGSLRLSCAASGSIFAGYAMGWYRQAPGKERELVAAISWSGGRTYYADSVKGRFTISRDNAKNTVYLQMNSLKPEDTAVYYCAALYIYRTYAALSRYDYWGQGTQVTVSS”, the “polyreactivity (PSR sort gate)” value is recorded as “high polyreactivity”.

For “QVQLVESGGGLVQAGGSLRLSCASSGYIITRKAMGWYRQAPGKERELVATISSRGGRTYYADSVKGRFTISRDNAKNTVYLQMNSLKPEDTAVYYCAATPWYRTRTYDYWGQGTQVTVSS”, the “polyreactivity (PSR sort gate)” value was “high polyreactivity”.

With “QVQLVESGGGLVQAGGSLRLSCAASGRIFRSYAMGWYRQAPGKERELVAAINYGGTSTYYADSVKGRFTISRDNAKNTVYLQMNSLKPEDTAVYYCAARRPTSPRRYESRGQGTQVTVSS”, the “polyreactivity (PSR sort gate)” value is recorded as “high polyreactivity”.

Regarding “QVQLVESGGGLVQAGGSLRLSCAASGSTILRYAMGWYRQAPGKERELVATISRSDDGTYYADYVKGRFTISRDNAKNTVYLQMNSLKPEDTAVYYCGARSWYLYYYWGLGTQVTVSS”, the “polyreactivity (PSR sort gate)” value is “low polyreactivity”.

Regarding “QVQLVESGGGLVQAGGSLRLSCAASGSTFFAYAMGWYRQAPGKERELVAAITGRGSTYYADSVKGRFTISRDNAKNTVYLQMNSLKPEDTAVYYCAAQRSRRYYRLDYWGQGTQVTVSS”, the “polyreactivity (PSR sort gate)” value is on record as “high polyreactivity”.

In the case of “QVQLEESGGGLVQAGGSLRLSCAASGSILIYNAMGLYRQATGKERELVAGISRRGASTYYADSVKGRFTISRDYAKNTVYLQMNSLKPEDTAVYYCATRKLRTRGYDYGYWGQGTQVTVSS”, the “polyreactivity (PSR sort gate)” value is reported as “low polyreactivity”.

Take “QVQLVESGGGLVQAGGRLRLSCAASGSIYDDYAMGWNRQAPGKEREFVAAIDYSGGSTYYADSVKGRFTISRDNAKNTVYFQKNSLKPEDTAVYYCAKEAITRTFQYRHDYWGQGTQVTVSS”: the “polyreactivity (PSR sort gate)” value is reported as “low polyreactivity”.

On to “QVQLVESGGGLVQAGGSLRLSCAASGRTFYYNAMGWYRQAPGKERELVAAISWSGGSTYYADSVKGRFTISRDNAKNTVYLQMNSLKPEDTAVYYCAADYEYSRAYGYDYWGQGTQVTVSL”, for which the “polyreactivity (PSR sort gate)” value is given as “low polyreactivity”.

With “QVQLVESGGGLVQAGGSLRISCAASGFTFFSNAMGWYRKAPGKERELVAAITSSGGSTYADTVKGRFTISRDNAKNTVYLQMNRLKPEDTAVYYCAADAQAPPGGFKEYDYWGQGTQVTVSS”, the “polyreactivity (PSR sort gate)” value is reported as “low polyreactivity”.

On to “QVQLVESGGGLVQAGGSLRLSCAASGFIFDRNAMGWYRQAPGKERELVAAISVSGGNTYYADSVKGRFTISRDNAKNTVYLQMNSLKPEDTAVYYCAASRYHSTRGDYWGQGTQVTVSS”, for which the “polyreactivity (PSR sort gate)” value is “high polyreactivity”.

Turning to “QVQLVESGGGLVQAGGSLLLSCAASGLTFTDNAMGWSRQAPGKERELVAAISQSGGRTFYADSVKGRFTISRDNAKNTVYLQINSLKPEDPAVYYCNSRRGSVAKYGYLGQGTQVTVSS”, the “polyreactivity (PSR sort gate)” value is given as “high polyreactivity”.

For the sequence “QVQIVESGGGLVQAGGSLRLSCAASGFIFVFNAMGWYRQAPGKERELVAAINGGDITNYADSVKGRFTISRDNAKNTVYLQMNSLKPEDTAVYYCAADGEDSLWTGYDYDYWGQGNQVTVSS”, the “polyreactivity (PSR sort gate)” value is recorded as “low polyreactivity”.

For “QVQLVESGGGLVQAGGSLRLSCAASGRIFWYYGMGWYRQAPGKERELVAAITSGGRTYYADSVKGRFTISRDNAKNTVYLQMNSLKPEDTAVYYCAKGYVRYPSKGYTFDYWGQGTQVTVSS”, the “polyreactivity (PSR sort gate)” value is recorded as “high polyreactivity”.

For “QVQLVDSGGGLVQAGGSLRLSCAASGSTFISYAMGWYRQAPGKERELVAAISRRGDSTYYADSVKGRFTISRDNAKNNVYLEMNSLKPEDTAVYYCAADVSGDKGSIHMNYWGQGTLVTVSS”, the “polyreactivity (PSR sort gate)” value is “low polyreactivity”.

Take “QVQLVESGGGLVQAGGSLRLSCAASGSTFINYAMGWYRQAPGKERELVAAISSSGGRTYYADSVKGSFTISRDNAKNTVYFLMNSLKPEDTAVYYCAASGRKNGMNYWGQGTLVTVSS”: the “polyreactivity (PSR sort gate)” value was “high polyreactivity”.

For the sequence “QVQLVESGGGLVQAGGSLRLSCAASGSTFGYYAMGWYRQAPGKERELVATITSSGDNTYADSVKGRFTISRDNAKNTVYLQMNSLKPEDTAVYYCNARYRKSSRPVYEPYERYYWGQGTQVTVSS”, the “polyreactivity (PSR sort gate)” value is listed as “high polyreactivity”.

As for “QVQLVESGGGLVQAGGSLRLSCAASGIIFGTYAMGWYRQAPGKERELVAVITSGAGRTYYADSVKGRFTISRDNAKNTVYLQMNSLKPEDTAVDYCAARVWYPRYDYWGQGTQVTVSS”, the “polyreactivity (PSR sort gate)” value is “high polyreactivity”.

With “QVQLVESGGGLVQAGGSLRLSCAASGRIFYGYAMGWYIHAPGKERELVAAITYSGGITYYADSVKGRFTISRDNAKNTVYLQMNSLKPEDTAVYYCATSKSSVTGPDLDYWGQGTQVTVSS”, the “polyreactivity (PSR sort gate)” value is “high polyreactivity”.

Regarding “QVQLVESRRGLVQAGGSLRLSCAASGRIFYRYALGWYRQAPGKEREFVAAISRSGGTTYYADSVKGRFTISRDNAKNTVYLQMNSLNPEDTAVYYCAAGGSFWYFSPRYGYWGQGTQVTVSS”, the “polyreactivity (PSR sort gate)” value is on record as “high polyreactivity”.

Regarding “QVQLVDSGGGLVQAGGSLRLSCAASGRTFYYYAMGWYRQAPGKERELVADIRGRGGSTYYADSVKGRFTISRDNAKNTVYLQMNSLKPEDTAVYYCARRSPNPYSIYYYWGQGTQVTVSS”, the “polyreactivity (PSR sort gate)” value was “high polyreactivity”.

Regarding “QVQLVESGGGLVQAGGSLRLSCAASGSIFGTYAMRWYIQAPGKERDLVATISYGDGYTYYADSVKGRFTISRDNAKNTVYLLMNSLKPEDTPVYYCNTGVFSSGGPLVYWGEGTQVTVSS”, the “polyreactivity (PSR sort gate)” value is recorded as “low polyreactivity”.

In the case of “QVHLVESGGGLVQAGGSLRLSCAASGRSFRRNARGWYRQAPGKERELVATISSGGTTKYADSVKGRFTISRDNAKYTVYLQMNNLKPEDTAVYYCNADLNRRTYGPDSYYWGQGNQVTVSS”, the “polyreactivity (PSR sort gate)” value is given as “high polyreactivity”.

As to “QVQLVESGGGIVQAGGSLRLSCAASGRNSNRYAMGWYRQAPGKEREFVAAISKSGTSTYYADSVKGRFTISRDNAKNTVYLQMNSLKPEDTAVYYGAAKTGVGLRVNSGIGFYYWGQGTQVTVSS”, the “polyreactivity (PSR sort gate)” value is on record as “high polyreactivity”.
